According to patent US20220332824A1 (published 2022):
Numbering of substitutions follows the chain as printed.

B1: bispecific antibody PD1b-E-HN (bispecific antibody)
heavy: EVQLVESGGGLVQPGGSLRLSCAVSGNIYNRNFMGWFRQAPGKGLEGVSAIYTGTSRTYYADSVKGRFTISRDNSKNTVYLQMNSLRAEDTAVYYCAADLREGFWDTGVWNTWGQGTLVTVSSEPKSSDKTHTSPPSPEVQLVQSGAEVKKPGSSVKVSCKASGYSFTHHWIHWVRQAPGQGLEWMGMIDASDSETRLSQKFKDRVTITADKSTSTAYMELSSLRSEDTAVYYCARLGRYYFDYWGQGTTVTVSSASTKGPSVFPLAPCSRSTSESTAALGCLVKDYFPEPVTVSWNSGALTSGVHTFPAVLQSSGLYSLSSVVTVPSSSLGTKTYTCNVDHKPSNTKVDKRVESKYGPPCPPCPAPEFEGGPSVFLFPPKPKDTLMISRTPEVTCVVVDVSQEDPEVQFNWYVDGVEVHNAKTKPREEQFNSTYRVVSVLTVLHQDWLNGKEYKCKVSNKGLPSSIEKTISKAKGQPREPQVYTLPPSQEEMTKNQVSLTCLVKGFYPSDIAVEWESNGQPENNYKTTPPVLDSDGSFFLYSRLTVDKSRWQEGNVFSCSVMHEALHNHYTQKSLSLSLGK
light: EIVLTQSPATLSLSPGERATLSCRASENVGTYISWYQQKPGQAPRLLIYGASNRYTGIPARFSGSGSGTDFTLTISSLEPEDFAVYYCGESYGHLYTFGGGTKVEIKRTVAAPSVFIFPPSDEQLKSGTASVVCLLNNFYPREAKVQWKVDNALQSGNSQESVTEQDSKDSTYSLSSTLTLSKADYEKHKVYACEVTHQGLSSPVTKSFNRGEC
B2: bispecific antibody PD1a-E-HN (bispecific antibody)
heavy: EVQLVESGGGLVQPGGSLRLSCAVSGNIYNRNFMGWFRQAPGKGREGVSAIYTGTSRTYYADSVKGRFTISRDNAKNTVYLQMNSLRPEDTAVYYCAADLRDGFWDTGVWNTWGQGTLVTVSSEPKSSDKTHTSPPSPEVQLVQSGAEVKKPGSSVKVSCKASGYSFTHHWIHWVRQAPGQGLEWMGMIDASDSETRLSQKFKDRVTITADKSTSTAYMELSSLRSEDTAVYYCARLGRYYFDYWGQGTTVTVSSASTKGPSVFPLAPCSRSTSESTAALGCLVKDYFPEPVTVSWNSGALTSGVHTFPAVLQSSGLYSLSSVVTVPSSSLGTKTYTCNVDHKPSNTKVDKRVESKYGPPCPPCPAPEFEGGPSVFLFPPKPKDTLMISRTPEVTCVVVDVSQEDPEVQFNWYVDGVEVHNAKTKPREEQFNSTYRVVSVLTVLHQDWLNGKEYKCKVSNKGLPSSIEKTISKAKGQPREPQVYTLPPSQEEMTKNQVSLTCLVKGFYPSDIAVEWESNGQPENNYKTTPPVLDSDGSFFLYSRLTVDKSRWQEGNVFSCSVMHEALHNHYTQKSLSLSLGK
light: B1 light
B3: bispecific antibody PD1b-E-HC (bispecific antibody)
heavy: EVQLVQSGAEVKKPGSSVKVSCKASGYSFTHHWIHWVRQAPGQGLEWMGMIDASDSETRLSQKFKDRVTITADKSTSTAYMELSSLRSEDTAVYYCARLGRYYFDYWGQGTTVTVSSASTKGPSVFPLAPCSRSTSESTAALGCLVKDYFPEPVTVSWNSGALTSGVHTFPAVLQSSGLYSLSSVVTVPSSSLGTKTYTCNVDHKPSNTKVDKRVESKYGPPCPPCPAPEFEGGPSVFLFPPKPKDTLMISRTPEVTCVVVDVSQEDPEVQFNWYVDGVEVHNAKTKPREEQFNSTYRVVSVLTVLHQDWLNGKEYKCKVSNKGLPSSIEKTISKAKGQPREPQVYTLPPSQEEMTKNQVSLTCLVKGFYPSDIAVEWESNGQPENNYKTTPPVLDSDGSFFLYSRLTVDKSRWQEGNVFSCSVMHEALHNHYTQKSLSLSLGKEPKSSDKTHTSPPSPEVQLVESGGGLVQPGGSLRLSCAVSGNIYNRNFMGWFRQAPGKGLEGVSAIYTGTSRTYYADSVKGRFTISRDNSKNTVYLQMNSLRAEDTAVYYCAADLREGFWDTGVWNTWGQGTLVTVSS
light: B1 light
B4: bispecific antibody PD1a-E-HC (bispecific antibody)
heavy: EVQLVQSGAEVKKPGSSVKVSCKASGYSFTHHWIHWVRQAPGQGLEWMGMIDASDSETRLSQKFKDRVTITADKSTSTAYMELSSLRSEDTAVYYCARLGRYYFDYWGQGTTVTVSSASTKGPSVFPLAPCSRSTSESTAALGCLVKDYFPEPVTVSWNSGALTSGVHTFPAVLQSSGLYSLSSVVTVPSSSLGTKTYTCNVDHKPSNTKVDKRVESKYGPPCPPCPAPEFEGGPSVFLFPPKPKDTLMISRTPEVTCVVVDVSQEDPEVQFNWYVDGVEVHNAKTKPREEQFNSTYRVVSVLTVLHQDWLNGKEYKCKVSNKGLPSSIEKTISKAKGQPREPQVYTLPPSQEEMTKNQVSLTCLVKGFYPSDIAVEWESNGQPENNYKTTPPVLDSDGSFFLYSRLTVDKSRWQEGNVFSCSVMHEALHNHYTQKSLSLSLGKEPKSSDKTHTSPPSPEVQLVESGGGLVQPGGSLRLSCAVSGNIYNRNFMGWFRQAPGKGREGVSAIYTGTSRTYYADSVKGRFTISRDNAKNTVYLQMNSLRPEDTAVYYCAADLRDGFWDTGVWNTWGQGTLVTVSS
light: B1 light
B5: bispecific antibody PD1a-E-LN (bispecific antibody)
heavy: not shown
light: EVQLVESGGGLVQPGGSLRLSCAVSGNIYNRNFMGWFRQAPGKGREGVSAIYTGTSRTYYADSVKGRFTISRDNAKNTVYLQMNSLRPEDTAVYYCAADLRDGFWDTGVWNTWGQGTLVTVSSEPKSSDKTHTSPPSPEIVLTQSPATLSLSPGERATLSCRASENVGTYISWYQQKPGQAPRLLIYGASNRYTGIPARFSGSGSGTDFTLTISSLEPEDFAVYYCGESYGHLYTFGGGTKVEIKRTVAAPSVFIFPPSDEQLKSGTASVVCLLNNFYPREAKVQWKVDNALQSGNSQESVTEQDSKDSTYSLSSTLTLSKADYEKHKVYACEVTHQGLSSPVTKSFNRGEC
B6: bispecific antibody PD1a-E-LC (bispecific antibody)
heavy: not shown
light: EIVLTQSPATLSLSPGERATLSCRASENVGTYISWYQQKPGQAPRLLIYGASNRYTGIPARFSGSGSGTDFTLTISSLEPEDFAVYYCGESYGHLYTFGGGTKVEIKRTVAAPSVFIFPPSDEQLKSGTASVVCLLNNFYPREAKVQWKVDNALQSGNSQESVTEQDSKDSTYSLSSTLTLSKADYEKHKVYACEVTHQGLSSPVTKSFNRGECEPKSSDKTHTSPPSPEVQLVESGGGLVQPGGSLRLSCAVSGNIYNRNFMGWFRQAPGKGREGVSAIYTGTSRTYYADSVKGRFTISRDNAKNTVYLQMNSLRPEDTAVYYCAADLRDGFWDTGVWNTWGQGTLVTVSS
B7: anti-CD47 monoclonal antibody (heavy chain H0 and light chain L0) (antibody, V domains shown)
VH: EVQLVQSGAEVKKPGSSVKVSCKASGYSFTHHWIHWVRQAPGQGLEWMGMIDASDSETRLSQKFKDRVTITADKSTSTAYMELSSLRSEDTAVYYCARLGRYYFDYWGQGTTVTVSS
VL: EIVLTQSPATLSLSPGERATLSCRASENVGTYISWYQQKPGQAPRLLIYGASNRYTGIPARFSGSGSGTDFTLTISSLEPEDFAVYYCGESYGHLYTFGGGTKVEIKR
B8: bispecific antibody PD1a-G15-HC (bispecific antibody)
heavy: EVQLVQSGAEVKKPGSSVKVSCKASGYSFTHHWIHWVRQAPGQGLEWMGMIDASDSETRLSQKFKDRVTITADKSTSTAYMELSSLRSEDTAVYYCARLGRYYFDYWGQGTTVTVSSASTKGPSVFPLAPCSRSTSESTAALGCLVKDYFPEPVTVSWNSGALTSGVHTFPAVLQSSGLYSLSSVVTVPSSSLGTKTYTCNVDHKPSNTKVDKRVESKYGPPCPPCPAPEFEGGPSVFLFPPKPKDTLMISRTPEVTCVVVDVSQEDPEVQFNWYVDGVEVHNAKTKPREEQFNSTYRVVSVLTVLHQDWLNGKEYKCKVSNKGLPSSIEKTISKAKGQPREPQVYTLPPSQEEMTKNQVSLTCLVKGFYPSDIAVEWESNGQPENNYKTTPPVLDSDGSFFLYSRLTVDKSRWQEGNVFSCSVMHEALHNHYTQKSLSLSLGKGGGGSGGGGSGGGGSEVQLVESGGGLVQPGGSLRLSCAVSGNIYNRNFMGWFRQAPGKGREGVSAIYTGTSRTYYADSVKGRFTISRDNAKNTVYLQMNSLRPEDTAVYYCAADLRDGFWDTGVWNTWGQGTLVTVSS
light: B1 light
B9: bispecific antibody PD1b-E-LN (bispecific antibody)
heavy: not shown
light: B5 light with R45L, A75S, P88A, D102E
B10: bispecific antibody PD1b-E-LC (bispecific antibody)
heavy: not shown
light: B6 light with R274L, A304S, P317A, D331E

The binders below were run against human PD-1 (human, UniProt Q15116 25-288) (assay: FACS binding, CHO-K1 cells expressing human PD-1).
human PD-1, sequence (Q15116 25-288): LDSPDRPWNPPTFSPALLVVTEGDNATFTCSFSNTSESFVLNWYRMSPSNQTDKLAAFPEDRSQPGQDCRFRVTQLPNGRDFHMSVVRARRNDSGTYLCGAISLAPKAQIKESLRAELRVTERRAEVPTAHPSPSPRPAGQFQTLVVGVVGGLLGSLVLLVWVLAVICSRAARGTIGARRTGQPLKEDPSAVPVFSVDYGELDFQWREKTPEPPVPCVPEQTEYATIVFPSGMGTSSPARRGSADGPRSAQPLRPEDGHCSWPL

Row | Binder | EC50
1 | B1 | 2.82 nM
2 | B2 | 4.15 nM
3 | B3 | 3.25 nM
4 | B4 | 2.6 nM
5 | B5 | 3.69 nM
6 | B6 | 7.74 nM
7 | B7 | ~4.44 nM
8 | B8 | 4.75 nM
9 | B9 | 3.02 nM
10 | B10 | 2.34 nM

Each binder was assayed against CD47 (UniProt Q08722 19-323) (assay: FACS).
CD47, sequence (Q08722 19-323): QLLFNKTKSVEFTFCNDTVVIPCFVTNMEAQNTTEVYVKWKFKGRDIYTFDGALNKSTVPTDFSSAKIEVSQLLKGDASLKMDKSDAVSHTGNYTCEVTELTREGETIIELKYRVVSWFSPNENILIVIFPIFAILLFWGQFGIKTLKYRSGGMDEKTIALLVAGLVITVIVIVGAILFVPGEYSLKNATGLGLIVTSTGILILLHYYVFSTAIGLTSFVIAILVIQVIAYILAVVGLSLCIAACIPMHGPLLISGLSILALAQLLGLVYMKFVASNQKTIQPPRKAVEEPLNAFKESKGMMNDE

Row | Binder | EC50
11 | B1 | 1.78 nM
12 | B2 | 1.41 nM
13 | B3 | 0.804 nM
14 | B4 | 1.09 nM
15 | B7 | 1.46 nM
16 | B8 | 0.968 nM
